Laboratory results from the supplement of paper PMC9170038.

The sequences below were run on MS2 coat protein (assay: apparent KD of MS2 coat protein; higher = weaker reporter binding). Settings: Eterna round: R107; input ligand: arginine 13.2 mM.
Procedure: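 RNA-MaP round R107: designed RNA switches with theophylline, tryptophan, arginine or FMN aptamers are transcribed on-chip within common flanks. They are titrated with SNAP-549-labelled MS2 coat protein in RNA-MaP buffer (100 mM Tris pH 7.5, 80 mM KCl, 4 mM MgCl2), without ligand or with the indicated ligand. Median apparent KD per design.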

Row | Sequence | apparent KD of MS2 coat protein [µM]
1 | GGGAGGUAGGCGGCCGCCACUGAUUUUCAUAUAUAUAUAACAUGAGGAUCACCCAUGUAGAUAUGCAGGACCGGGCCUGUUUUUU [aaaK] | 0.0188
2 | GGAUAGGACACGGCCGCCACUAGCUAGGAUACUAGCAACAUUUCCUCAUAUGAGGAUCACCCAUAUAGGACCGGGUGUCCUAUCG | 0.215
3 | ACAUGAGGAUCACCCAUGUAUGACUAUCCUCGAGGACCGGUACGGCCGCCACUCGAACGAGUGGCUCGCGAGUGCGCACUCGCGG [5'end-1] | 0.0124
4 | GGGCAAGAGGGAAGGAGCGUCAGCUGAGUCACAUGAGGAUCACCCAUGUCGCACAUAGUGUGACAGGUAGGUCGCCCUCUACCCU [Esceinan] | 0.0578
5 | AGACUGUCUUCGGACAGUCCGGACAGCCCGCGAGGACCGGUACGGCCGCCACUCGCGUGAGGAUCACCCAUGCGAGGCUGUCCGA [Omei Tryp A Exc A v1] | 0.0275
6 | UUCAGCUAGUCGGCCGCCACUACAUGAGGAUCACCCAUGUAAUCCUAACACUGCUUCGGCAGUGGUAGGACCGGGACUAGCUGAG | 0.0111
7 | CCUCAAUAGACGGCCGCCACUGAAACAUGAGGAUACAUGAGGAUCACCCAUGUGGGUGUGUUACGCAGGACCGGGUCAAGACCCG [Tryp B SS t1] | 0.304
8 | UUACAUGAGGAUCACCCAUGUCAUAAUGAUACCAGAUAGUUAAUGAUCCCUUGGCAGCAUAAUACCUAGACAUUUAAGUCAUAGG [Aa] | 0.0595
9 | UGGUAUGUAGGAAGGAGCGCAUACUUCACAUGAGGAUCACCCAUGUCAAGACGUGAGUCAGUGCAGGUAGGUCGCCUAGUUAUGA [Same State - Arginine B (Freestyle 21)] | 0.0312
10 | GCUAGGUCAUCGGCCGCCACUAUUAGUGGUUCGAACAUGAGGAUCACCCAUGUGCCACAUGCGCAUAGGACCGGGAUGACCUAGC [SSTB NP+V+V2 #8] | 0.0118
11 | AUAUAUACAUGAGGAUCACCCAUGUUAUUUCGAGGACCGGUACGGCCGCCACUCGAUAGAGUAGAAGUAAAUUUUGAUUCAUGUA [JR_SSTryptoA_Sub009] | 0.0179
12 | UUGAUCAUAUAUGAAAACAUAUAUGCAGAAGGAGCGUGAUAAAACACAGGUAGGUCGCUGAAGGGAACAUGAGGAUCACCCAUGU [AstrosSSArgA#3] | 0.0302
13 | GCAUCCUAGUCGGCCGCCACUGGUAUGAACACCUUCACCCGUGUGCACAUGAGGAUCACCCAUGUUAGGACCGGGACUAGGAUGC [SSTryp B #20] | 0.01
14 | GAUCGAUCAUAGUACGAUCGUUUUGUGGAAGGAGCGCAGAGGACUGCAGGUAGGUCGCCACAUGAGGAUCACCCAUGUCAGGAUU [XARG-A 24] | 0.0999
15 | UUAGAUAUGACGGAUACCAGCGUGUUGUAGAACAUGAGGAUCACCCAUGUAGUGAUCGUGCGCCCUUGGCAGCUGGUAUGUUUGG [7.V] | 0.133
16 | GUUGUAUACUCGGCCGCCACUGAGAGAGUCAUGUGAACAUGAGGAUCACCCAUGUAAUAUAUAUACAGGACCGGGAGUGUGGUAA [4.H] | 0.0145
17 | UGUGCAUGAGUUGUAAAAGCUCAUGGGCAUCGAGGACCGGUACGGCCGCCACUCGGCUGUACAUGAGGAUCACCCAUGUCAGGGU [#1 Same State - Tryptophan A Attempt #22 (HarryS)] | 0.133
18 | GACUAUAUGAUAUGUCAGAAAUCCUCGAAACGAGGACCGGUACGGCCGCCACUCGAGUGAUCAACAUGAGGAUCACCCAUGUAAA [Tryp A Ex t1] | 0.0361
19 | ACAUGAAGAUUAAUCGUGGGCAUACUCGAUACCAGUAUUUUAACCUACCCUUGGCAGCGACAUGAGGAUCACCCAUGUGAGAUGA [XTheo A #8] | 0.0199
20 | CGUGGUGGGACGGAUACCAGCCACCGCGGCAACGCAACAUGAGGAUCACCCAUGUUGGGUGGCCCUUGGCAGCUGUCCUGCGGCG [#1 Same State - Theophylline B Attempt #26 (HarryS)] | 0.00991
21 | AUCGCACCUGGUGAUACCAGCGUUUGCUCGCGACAUGAGGAUCACCCAUGUGGCCAGUGAUGCCCUUGGCAGCAUGGUCGGUGCA [Same State - Theophylline B (Freestyle 27)] | 0.0755
22 | CCAUAUGUAACUGAUACCAGUGUACUGACAUGAGGAUCACCCAUGUUGGGUUUUGUUGUACACCCUUGGCAGCAGAAUCAUAUGG [AstrosExyTheB#17] | 0.0483
23 | GUAACACAUGAGGAUCACCCAUGUUCCGAUACCAGUAUUGAAGAUUACCCUUGGCAGCGGGUAGGUCGGAGUGGACGGCCCGAGC [theeternabot_sameState_MS2_Theo_A_8] | 0.0179
24 | AGACAUGAGGAUCACCCAUGUAGCAUGGAUACCAGAUGUAGAUUAGUCCCUUGGCAGCUGUGGUGAAGUGAUGCAUUGCUCCUAG [Exclusion - Theophylline A (Freestyle 2)] | 0.0299
25 | AACCGAGGCUAUCCUCUCCGCCUAUGUGAUACCAGAAUAAUUUUAUUCCCUUGGCAGCAUGACAUGAGGAUCACCCAUGUCUCUU [SSTheo A #11] | 0.0152
26 | UGUAUGUGAUCUGAUACCAGUCCAACUGGUAAAACUUGAGGAUCACCCAAGUAAAAUUGGGACCCUUGGCAGCAGAUCGCAUACU | 0.126
27 | UUACAUGAGGAUCACCCAUGUCAUACAGAAGGAGCGUCACAUAAGACAGGUAGGUCGCUGUUAUUUAAUACUAUUAUAUCCUCUA [JR_Nu_ExcArginiA_Sub027] | 0.0269
28 | ACGAACGCACCUGAGGAUCACCCAGGUGAUACCAGCCUGGAAACAGGCCCUUGGCAGCACCUAAAAUAAAGGUAACGUUCGAAUA [TheoAX7 #MicroSwitchBubble #AlternativeMS2] | 0.0411
29 | GGUACAUGAGGAUCACCCAUGUGUCAUGAUACCAGACAUGAAAAUGUCCCUUGGCAGCAUGCCAGACGGCCGCGUUUAGCGGCCG [Oresin] | 0.0186
30 | AUACAUGAGGAUCACCCAUGUAUAGUUGAAGGAGCGACCAGAGGGUCAGGUAGGUCGCAACACAUGAGGAUCACCCAUGUAUCGA [DOUBLE!!! :-D #7] | 0.03

Same assay, conditions: Eterna round: R107; input ligand: none

Row | Sequence | apparent KD of MS2 coat protein [µM]
31 | GGAUAGGACACGGCCGCCACUAGCUAGGAUACUAGCAACAUUUCCUCAUAUGAGGAUCACCCAUAUAGGACCGGGUGUCCUAUCG | 0.376
32 | ACAUGAGGAUCACCCAUGUAUGACUAUCCUCGAGGACCGGUACGGCCGCCACUCGAACGAGUGGCUCGCGAGUGCGCACUCGCGG [5'end-1] | 0.0114
33 | GGGCAAGAGGGAAGGAGCGUCAGCUGAGUCACAUGAGGAUCACCCAUGUCGCACAUAGUGUGACAGGUAGGUCGCCCUCUACCCU [Esceinan] | 0.124
34 | UGGUAUGUAGGAAGGAGCGCAUACUUCACAUGAGGAUCACCCAUGUCAAGACGUGAGUCAGUGCAGGUAGGUCGCCUAGUUAUGA [Same State - Arginine B (Freestyle 21)] | 0.0429
35 | UUGAUCAUAUAUGAAAACAUAUAUGCAGAAGGAGCGUGAUAAAACACAGGUAGGUCGCUGAAGGGAACAUGAGGAUCACCCAUGU [AstrosSSArgA#3] | 0.0272
36 | GAUCGAUCAUAGUACGAUCGUUUUGUGGAAGGAGCGCAGAGGACUGCAGGUAGGUCGCCACAUGAGGAUCACCCAUGUCAGGAUU [XARG-A 24] | 0.0615
37 | GUUGUAUACUCGGCCGCCACUGAGAGAGUCAUGUGAACAUGAGGAUCACCCAUGUAAUAUAUAUACAGGACCGGGAGUGUGGUAA [4.H] | 0.0168
38 | GACUAUAUGAUAUGUCAGAAAUCCUCGAAACGAGGACCGGUACGGCCGCCACUCGAGUGAUCAACAUGAGGAUCACCCAUGUAAA [Tryp A Ex t1] | 0.0362
39 | UGUAUGUGAUCUGAUACCAGUCCAACUGGUAAAACUUGAGGAUCACCCAAGUAAAAUUGGGACCCUUGGCAGCAGAUCGCAUACU | 0.371
40 | UUACAUGAGGAUCACCCAUGUCAUACAGAAGGAGCGUCACAUAAGACAGGUAGGUCGCUGUUAUUUAAUACUAUUAUAUCCUCUA [JR_Nu_ExcArginiA_Sub027] | 0.0337
41 | ACGAACGCACCUGAGGAUCACCCAGGUGAUACCAGCCUGGAAACAGGCCCUUGGCAGCACCUAAAAUAAAGGUAACGUUCGAAUA [TheoAX7 #MicroSwitchBubble #AlternativeMS2] | 0.0742
42 | GGUACAUGAGGAUCACCCAUGUGUCAUGAUACCAGACAUGAAAAUGUCCCUUGGCAGCAUGCCAGACGGCCGCGUUUAGCGGCCG [Oresin] | 0.0128
43 | AUACAUGAGGAUCACCCAUGUAUAGUUGAAGGAGCGACCAGAGGGUCAGGUAGGUCGCAACACAUGAGGAUCACCCAUGUAUCGA [DOUBLE!!! :-D #7] | 0.0499

Same assay, conditions: Eterna round: R107; input ligand: theophylline 20 uM

Row | Sequence | apparent KD of MS2 coat protein [µM]
44 | GGGAGGUAGGCGGCCGCCACUGAUUUUCAUAUAUAUAUAACAUGAGGAUCACCCAUGUAGAUAUGCAGGACCGGGCCUGUUUUUU [aaaK] | 0.0305
45 | GGAUAGGACACGGCCGCCACUAGCUAGGAUACUAGCAACAUUUCCUCAUAUGAGGAUCACCCAUAUAGGACCGGGUGUCCUAUCG | 0.389
46 | ACAUGAGGAUCACCCAUGUAUGACUAUCCUCGAGGACCGGUACGGCCGCCACUCGAACGAGUGGCUCGCGAGUGCGCACUCGCGG [5'end-1] | 0.0156
47 | GGGCAAGAGGGAAGGAGCGUCAGCUGAGUCACAUGAGGAUCACCCAUGUCGCACAUAGUGUGACAGGUAGGUCGCCCUCUACCCU [Esceinan] | 0.167
48 | AGACUGUCUUCGGACAGUCCGGACAGCCCGCGAGGACCGGUACGGCCGCCACUCGCGUGAGGAUCACCCAUGCGAGGCUGUCCGA [Omei Tryp A Exc A v1] | 0.0401
49 | UUCAGCUAGUCGGCCGCCACUACAUGAGGAUCACCCAUGUAAUCCUAACACUGCUUCGGCAGUGGUAGGACCGGGACUAGCUGAG | 0.0143
50 | CCUCAAUAGACGGCCGCCACUGAAACAUGAGGAUACAUGAGGAUCACCCAUGUGGGUGUGUUACGCAGGACCGGGUCAAGACCCG [Tryp B SS t1] | 0.435
51 | UUACAUGAGGAUCACCCAUGUCAUAAUGAUACCAGAUAGUUAAUGAUCCCUUGGCAGCAUAAUACCUAGACAUUUAAGUCAUAGG [Aa] | 0.08
52 | UGGUAUGUAGGAAGGAGCGCAUACUUCACAUGAGGAUCACCCAUGUCAAGACGUGAGUCAGUGCAGGUAGGUCGCCUAGUUAUGA [Same State - Arginine B (Freestyle 21)] | 0.0491
53 | GCUAGGUCAUCGGCCGCCACUAUUAGUGGUUCGAACAUGAGGAUCACCCAUGUGCCACAUGCGCAUAGGACCGGGAUGACCUAGC [SSTB NP+V+V2 #8] | 0.0182
54 | AUAUAUACAUGAGGAUCACCCAUGUUAUUUCGAGGACCGGUACGGCCGCCACUCGAUAGAGUAGAAGUAAAUUUUGAUUCAUGUA [JR_SSTryptoA_Sub009] | 0.027
55 | UUGAUCAUAUAUGAAAACAUAUAUGCAGAAGGAGCGUGAUAAAACACAGGUAGGUCGCUGAAGGGAACAUGAGGAUCACCCAUGU [AstrosSSArgA#3] | 0.0394
56 | GCAUCCUAGUCGGCCGCCACUGGUAUGAACACCUUCACCCGUGUGCACAUGAGGAUCACCCAUGUUAGGACCGGGACUAGGAUGC [SSTryp B #20] | 0.0112
57 | GAUCGAUCAUAGUACGAUCGUUUUGUGGAAGGAGCGCAGAGGACUGCAGGUAGGUCGCCACAUGAGGAUCACCCAUGUCAGGAUU [XARG-A 24] | 0.0625
58 | UUAGAUAUGACGGAUACCAGCGUGUUGUAGAACAUGAGGAUCACCCAUGUAGUGAUCGUGCGCCCUUGGCAGCUGGUAUGUUUGG [7.V] | 0.491
